{"source": "paper doi:10.1101/2022.11.20.517256", "about": "(bioRxiv, 2022)", "biological_target": "the molecule itself", "assay": "cryo-EM structure"}
{"protein": "Erwinia ligand-gated ion channel (ELIC), wild type (natural protein) APADNAADARPVDVSVSIFINKIYGVNTLEQTYKVDGYIVAQWTGKPRKTPGDKPLIVENTQIERWINNGLWVPALEFINVVGSPDTGNKRLMLFPDGRVIYNARFLGSFSNDMDFRLFPFDRQQFVLELEPFSYNNQQLRFSDIQVYTENIDNEEIDEWWIRKASTHISDIRYDHLSSVQPNQNEFSRITVRIDAVRNPSYYLWSFILPLGLIIAASWSVFWLESFSERLQTSFTLMLTVVAYAFYTSNILPRLPYTTVIDQMIIAGYGSIFAAILLIIFAHHRQAMGVEDDLLIQRCRLAFPLGFLAIGCVLVIRGITL", "values": [{"measurement": "stoichiometry N", "value": 5}]}
